Data published in the supplement of paper PMC6757056.
± gives the standard deviation of the averaged measurements.

B1: library; a variant is named by its letters at N, in order (parent)
chain: GCUGUCACCGAGAAACUGUGAAGUAUAUCUUAAACCUGGGCACUUAAAAGAUAUAUGGAGUUAGUAGUGCAACCUGCUCGGUCUGAUGAGUCCNNNNNNGGACGAAACAGC

Legend:
cyclic di-GMP [1] = variants of: B1; experiment: normalized RNA/DNA level without ligand (relative to sTRSVctl = 100) (log10 (% of sTRSVctl)); HEK293T; ligand: cyclic di-GMP (c-di-GMP-II aptamer); higher = less ribozyme self-cleavage, higher mRNA level; conditions: reporter: mCherry (pCS4076), ligand present: no
Method in brief: (§1)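 Library plasmids carrying ribozyme switches linked to mCherry, or to eGFP in some ligand experiments, were transfected into HEK293T at 4 µg per 6-well well, with any ligand added 1 h earlier. Seventy-two hours on, total RNA was extracted with EDTA and reverse-transcribed, amplified, barcoded and sequenced. RNA level was RNA over DNA reads normalized to a spiked-in non-cleaving sequence or to the top sequences, then scaled and log-transformed. The top set was 25 sequences, the transform was ×100 and log10, and sequences needed ≥100 DNA reads.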

cyclic di-GMP [2] = variants of: B1; experiment: normalized RNA/DNA level with ligand (relative to sTRSVctl = 100) (log10 (% of sTRSVctl)); HEK293T; ligand: cyclic di-GMP (c-di-GMP-II aptamer); ligand concentration (+) RNA-Seq: 1 mM; higher = less ribozyme self-cleavage, higher mRNA level; conditions: reporter: mCherry (pCS4076), ligand present: yes
Method in brief: as §1

Variant | normalized RNA/DNA level without ligand (log10) (cyclic di-GMP [1]) | normalized RNA/DNA level with ligand (log10) (cyclic di-GMP [2])
UUCUAC | 1.75 ± 0.025 | 1.9 ± 0.035
UUCUAA | 1.66 ± 0.025 | 1.8 ± 0.11
UUCUAG | 1.75 ± 0.047 | 1.84 ± 0.15
UUCUAU | 1.721 ± 0.0074 | 1.83 ± 0.11
UUGCAC | 1.75 ± 0.024 | 1.85 ± 0.11
UUGCAU | 1.669 ± 0.0095 | 1.81 ± 0.081
UUGCAA | 1.69 ± 0.075 | 1.81 ± 0.037
UUGCAG | 1.8468 ± 0.00037 | 1.9 ± 0.042
UUGCGA | 1.778 ± 0.01 | 1.88 ± 0.076
GUCCAG | 1.76 ± 0.07 | 1.83 ± 0.1
GUCCAU | 1.66 ± 0.054 | 1.83 ± 0.14
GUCCAC | 1.6752 ± 0.00073 | 1.82 ± 0.054
GUCUUU | 1.7 ± 0.033 | 1.83 ± 0.092
GUCUUC | 1.7 ± 0.015 | 1.87 ± 0.097
GUCUUA | 1.677 ± 0.0086 | 1.83 ± 0.15
UUCGAU | 1.69 ± 0.066 | 1.85 ± 0.16
UUCGAA | 1.6 ± 0.041 | 1.82 ± 0.043
UUCGAC | 1.659 ± 0.0063 | 1.79 ± 0.12
UUCGAG | 1.6344 ± 1.3e-05 | 1.81 ± 0.14
CUCCAC | 1.719 ± 0.016 | 1.84 ± 0.092
CUCCAU | 1.58 ± 0.035 | 1.82 ± 0.057
CUCCAA | 1.46 ± 0.096 | 1.72 ± 0.083
CUCCAG | 1.73 ± 0.07 | 1.86 ± 0.055
AUGAAG | 1.52 ± 0.13 | 1.67 ± 0.064
AUGAAU | 1.53 ± 0.055 | 1.72 ± 0.024
GUCCCC | 1.76 ± 0.029 | 1.86 ± 0.061
GUCCCA | 1.772 ± 0.0084 | 1.87 ± 0.075
GUCCCG | 1.76 ± 0.058 | 1.85 ± 0.21
GUCCCU | 1.77 ± 0.024 | 1.92 ± 0.091
